# Laboratory results: patent US20170369572A1 (CELGENE, published 2017)
# B1: Anti-CD47 CF Control (antibody, V domains shown)
# VH: QMQLVQSGAEVKKTGSSVKVSCKASGFNIKDYYLHWVRQAPGQALEWMGWIDPDQGDTEYAQKFQDRVTITRDRSMSTAYMELSSLRSEDTAMYYCNAAYGSSSYPMDYWGQGTTVTV
# VL: NIQMTQSPSAMSASVGDRVTITCKASQDIHRYLSWFQQKPGKVPKHLIYRANRLVSGVPSRFSGSGSGTEFTLTISSLQPEDFATYYCLQYDEFPYTFGGGTKVEIK
# notes: also called Control Antibody; anti-CD47 control antibody
# B2: anti-CD47 antibody IgG4P-5m, cell-free expressed (antibody)
# heavy: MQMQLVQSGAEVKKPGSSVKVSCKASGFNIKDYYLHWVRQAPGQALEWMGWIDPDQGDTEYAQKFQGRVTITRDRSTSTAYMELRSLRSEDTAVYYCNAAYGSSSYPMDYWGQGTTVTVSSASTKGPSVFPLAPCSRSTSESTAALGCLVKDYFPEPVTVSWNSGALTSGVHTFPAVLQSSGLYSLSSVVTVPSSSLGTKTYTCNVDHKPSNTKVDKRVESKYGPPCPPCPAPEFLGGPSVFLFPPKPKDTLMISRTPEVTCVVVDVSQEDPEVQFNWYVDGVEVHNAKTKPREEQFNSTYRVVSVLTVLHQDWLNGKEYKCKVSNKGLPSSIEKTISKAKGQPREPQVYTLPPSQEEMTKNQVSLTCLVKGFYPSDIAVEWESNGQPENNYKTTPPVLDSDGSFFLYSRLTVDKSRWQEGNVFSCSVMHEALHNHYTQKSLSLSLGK
# light: MNIQMTQSPSAMSASVGDRVTITCKASQDIHRYLSWFQQKPGKVPKHLIYRANRLVSGVPSRFSGSGSGTEFTLTISSLQPEDFATYYCLQYDEFPYTFGGGTKVEIKRTVAAPSVFIFPPSDEQLKSGTASVVCLLNNFYPREAKVQWKVDNALQSGNSQESVTEQDSKDSTYSLSSTLTLSKADYEKHKVYACEVTHQGLSSPVTKSFNRGEC
# notes: IgG4 S228P with 5 framework mutations in VH; cell-free system; also called IgG4P-5m-CF
# B3: anti-CD47 antibody IgG1-5m, cell-free expressed (antibody)
# heavy: not shown
# light: B2 light
# notes: IgG1 with 5 framework mutations in VH; also called IgG1-5m-CF
# B4: anti-CD47 antibody IgG4PE-5m, cell-free expressed (antibody)
# heavy: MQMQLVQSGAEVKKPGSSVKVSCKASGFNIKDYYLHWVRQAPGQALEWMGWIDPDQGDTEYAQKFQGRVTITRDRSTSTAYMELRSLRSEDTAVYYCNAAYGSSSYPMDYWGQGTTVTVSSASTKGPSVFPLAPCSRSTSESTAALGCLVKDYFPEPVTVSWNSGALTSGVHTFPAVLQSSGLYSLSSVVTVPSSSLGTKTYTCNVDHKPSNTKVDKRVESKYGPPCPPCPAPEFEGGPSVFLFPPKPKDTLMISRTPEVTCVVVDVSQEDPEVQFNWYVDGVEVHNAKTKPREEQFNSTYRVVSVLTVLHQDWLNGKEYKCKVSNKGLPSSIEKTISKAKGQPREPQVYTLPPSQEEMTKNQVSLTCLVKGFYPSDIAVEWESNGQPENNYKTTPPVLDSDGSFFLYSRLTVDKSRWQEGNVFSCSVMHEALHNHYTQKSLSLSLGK
# light: B2 light
# notes: IgG4 S228P/L235E with 5 framework mutations in VH; cell-free system; also called IgG4PE-5m-CF
# B5: anti-CD47 antibody IgG1-parental, CHO expressed (antibody)
# VH: not shown
# VL: NIQMTQSPSAMSASVGDRVTITCKASQDIHRYLSWFQQKPGKVPKHLIYRANRLVSGVPSRFSGSGSGTEFTLTISSLQPEDFATYYCLQYDEFPYTFGGGTKVEIKRTVAAPSVFIFPPSDEQLKSGTASVVCLLNNFYPREAKVQWKVDNALQSGNSQESVTEQDSKDSTYSLSSTLTLSKADYEKHKVYACEVTHQGLSSPVTKSFNRGEC
# notes: Parental antibody as IgG1, made in CHO cells; also called IgG1-QN1-CHO
# B6: anti-CD47 antibody IgG4P-parental, CHO expressed (antibody)
# VH: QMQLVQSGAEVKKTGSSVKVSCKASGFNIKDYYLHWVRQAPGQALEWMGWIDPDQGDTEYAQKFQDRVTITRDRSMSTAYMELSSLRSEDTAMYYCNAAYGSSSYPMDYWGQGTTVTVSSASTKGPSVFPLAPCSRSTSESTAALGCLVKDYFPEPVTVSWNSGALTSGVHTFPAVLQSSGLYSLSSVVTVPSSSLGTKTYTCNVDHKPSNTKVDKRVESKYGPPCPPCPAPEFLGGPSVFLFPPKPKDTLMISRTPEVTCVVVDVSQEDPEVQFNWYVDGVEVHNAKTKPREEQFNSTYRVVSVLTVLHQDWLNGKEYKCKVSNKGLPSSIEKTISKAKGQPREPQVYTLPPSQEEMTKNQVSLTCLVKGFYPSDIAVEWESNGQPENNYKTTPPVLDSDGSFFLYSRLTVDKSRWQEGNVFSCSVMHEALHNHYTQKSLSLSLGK
# VL: B5 VL
# notes: Parental antibody as IgG4 S228P, made in CHO cells
# B7: anti-CD47 antibody IgG4PE-parental, CHO expressed (antibody)
# VH: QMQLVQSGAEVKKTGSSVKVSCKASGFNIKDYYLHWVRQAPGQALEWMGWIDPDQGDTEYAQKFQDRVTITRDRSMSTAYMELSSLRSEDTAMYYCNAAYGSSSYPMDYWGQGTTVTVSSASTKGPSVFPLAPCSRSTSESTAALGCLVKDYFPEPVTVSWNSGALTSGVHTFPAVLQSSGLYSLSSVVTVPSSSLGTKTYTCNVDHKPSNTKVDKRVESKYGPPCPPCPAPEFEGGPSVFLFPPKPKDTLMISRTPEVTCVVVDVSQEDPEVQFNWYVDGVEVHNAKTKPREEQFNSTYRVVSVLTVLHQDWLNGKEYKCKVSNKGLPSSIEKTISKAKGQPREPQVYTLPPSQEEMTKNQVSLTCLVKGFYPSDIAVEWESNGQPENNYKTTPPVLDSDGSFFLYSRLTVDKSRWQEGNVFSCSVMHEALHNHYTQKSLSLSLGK
# VL: B5 VL
# notes: Parental antibody as IgG4 S228P/L235E, made in CHO cells; also called IgG4-PE CHO; CHO IgG4PE
# B8: anti-CD47 antibody IgG1-13m, cell-free expressed (antibody)
# heavy: not shown
# light: B2 light
# notes: IgG1 with 13 framework mutations in VH; cell-free system; also called IgG1-13m-CF
# B9: anti-CD47 antibody IgG1-parental, cell-free expressed (antibody)
# heavy: not shown
# light: B2 light
# notes: Parental (AB6.12) variable domains on IgG1; cell-free system; also called IgG1-parental-CF; IgG1-CF
# B10: anti-CD47 antibody IgG1-13mZ, cell-free expressed (antibody)
# heavy: not shown
# light: B2 light
# notes: IgG1 Z allotype with 13 framework mutations in VH (13 + 2 mutations); cell-free system; also called IgG1-13mZ-CF
# B11: anti-CD47 antibody IgG4P-parental, cell-free expressed (antibody)
# heavy: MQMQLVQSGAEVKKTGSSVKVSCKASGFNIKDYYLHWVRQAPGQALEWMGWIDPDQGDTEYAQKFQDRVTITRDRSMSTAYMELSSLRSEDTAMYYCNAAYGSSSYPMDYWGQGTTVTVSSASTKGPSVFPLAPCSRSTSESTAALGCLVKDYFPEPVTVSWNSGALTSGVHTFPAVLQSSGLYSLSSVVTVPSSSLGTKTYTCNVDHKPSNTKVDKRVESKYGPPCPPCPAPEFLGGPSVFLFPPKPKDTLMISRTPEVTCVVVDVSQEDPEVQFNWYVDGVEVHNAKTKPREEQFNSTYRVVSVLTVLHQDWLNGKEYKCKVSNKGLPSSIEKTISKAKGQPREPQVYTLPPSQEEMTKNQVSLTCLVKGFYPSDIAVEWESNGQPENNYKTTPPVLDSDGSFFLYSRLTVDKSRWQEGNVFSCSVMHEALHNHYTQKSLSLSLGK
# light: B2 light
# notes: Parental variable domains on IgG4 S228P; cell-free system; also called IgG4P-parental-CF
# B12: anti-CD47 antibody IgG4PE-parental, cell-free expressed (antibody)
# heavy: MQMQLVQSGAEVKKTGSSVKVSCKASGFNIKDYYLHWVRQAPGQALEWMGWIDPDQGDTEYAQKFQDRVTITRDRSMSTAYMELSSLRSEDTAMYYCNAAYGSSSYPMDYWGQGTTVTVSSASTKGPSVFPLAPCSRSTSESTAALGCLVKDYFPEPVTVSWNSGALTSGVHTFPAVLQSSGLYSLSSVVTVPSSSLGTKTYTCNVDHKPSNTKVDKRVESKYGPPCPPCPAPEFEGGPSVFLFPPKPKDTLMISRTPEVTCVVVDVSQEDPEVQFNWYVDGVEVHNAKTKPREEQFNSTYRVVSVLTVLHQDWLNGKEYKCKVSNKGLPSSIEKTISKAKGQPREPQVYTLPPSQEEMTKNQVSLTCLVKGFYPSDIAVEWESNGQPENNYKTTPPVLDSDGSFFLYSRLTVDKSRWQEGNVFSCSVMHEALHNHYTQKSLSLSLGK
# light: B2 light
# notes: Parental variable domains on IgG4 S228P/L235E; cell-free system; also called IgG4PE-parental-CF
# Molecular target: T1, human CD47 antigen (human, UniProt Q08722 19-139, limits assumed)
# T1 construct: also called CD47 analyte
# Assay: SPR (Biacore), experimental Rmax against theoretical Rmax, stoichiometry 2
# Procedure: (§1) Kinetic Assays: For kinetic assays anti-CD47 antibodies were captured onto the anti-human Fc surfaces (surface preparation described above). For capture of the antibodies with human Fc, the antibodies were diluted to 10 μg/mL in HBS-EP+ running buffer. The antibody variants were immobilized by flowing over flow cell 2, 3 or 4 at a flow rate of 10 uL/min for 12 seconds. The analyte (human CD47 antigen) was diluted into running buffer to prepare a serial dilution series created with a 2-fold dilution factor to give concentrations of 3.125, 6.25, 12.5, 25 and 50 nM. After anti-CD47 antibody capture, the CD47 analyte was injected over the flow cells for 180 seconds (3 minutes) at 50 μL/min, and complex dissociation was monitored for 900 seconds (15 minutes). Buffer blanks were also run, and were used to reference the analyte binding data before fitting. Anti-human Fc surfaces were regenerated with two 30-second injections of 3M MgCl₂ at 30 uL/min between each analyte binding cycle.
# Kinetic data analysis: Experimental data for a given antibody—antigen interaction were fit using the 1:1 binding model, using global Rₘₐₓ, global kₐ (association), global kd (dissociation) parameters, and constant RI (bulk refractive index) parameters. Fraction activity (% ligand activity) was determinined using the following formula to calculate the relationship between the theoretical Rₘₐₓ (Rₘₐₓ Theo) and the experimental Rₘₐₓ (Rₘₐₓ exp). In the formula, stoichiometry represents the instances of interaction between antibody and antigen, for instance, when the antibody is the ligand, each of the antibody arms can interact with antigen, thus the stoichiometry is 2.
row,Binder,% Ligand activity [%]
1,B1,39.4
2,B2,38.2
3,B3,37.4
4,B4,39.2

# Molecular target: T1, human CD47 antigen
# Assay: SPR (Biacore), antibody captured on anti-human Fc, human CD47 as analyte 3.125-50 nM, 1:1 model
# Procedure: (§2) Immobilization: Anti-human Fc (AHC) surfaces were prepared by amine-coupling monoclonal mouse anti-human Fc IgG (included in the Biacore Human Antibody Capture Kit, GE Life Sciences Cat #BR-1008-39) to a Biacore CM5 sensor chip surface. The running buffer for the immobilization procedure was HBS-EP+ (10 mM HEPES, 150 mM NaCl, 3 mM EDTA, 0.05% v/v P-20 as surfactant). The following was performed in all four flow cells to prepare surfaces amine-coupled anti-human Fc IgG. The CM5 chip surface was activated by injecting a 1:1 (v/v) mixture of 400 mM EDC and 100 mM NHS for 7 minutes at 10 μL/min. Following this treatment, anti-human IgG was diluted to 25 μg/mL in 10 mM sodium acetate buffer pH 5.0, and injected over all the flow cells at 10 μL/min for 7 minutes. Then, Ethanolamine was injected at 10 μL/min for 7 minutes to block all the surfaces.
# as §1
# (§3) Kinetic data analysis: Experimental data for a given antibody—antigen interaction were fit using the 1:1 binding model, using global Rₘₐₓ, global kₐ (association), global kd (dissociation) parameters, and constant RI (bulk refractive index) parameters.
Binder,Kd [nM],koff [s⁻¹],kon [M⁻¹ s⁻¹]
B1,3.16,0.00231,732000
B2,3.6,0.00254,704000
B3,4.09,0.0026,636000
B4,4.27,0.00254,594000

# Molecular target: T2, human CD47 on CCRF-CEM cells (human, UniProt Q08722 19-323)
# T2 construct: Endogenous CD47 on the human T lymphoblast line CCRF-CEM (ATCC CCL-119); also called CD47-positive CCRF-CEM cells; CCRF-EM cells
# Assay: flow cytometry on CCRF-CEM cells, MFI against concentration, one site specific binding with Hill slope
# Procedure: To obtain binding curves, sample variants were titrated 1:2 in FACS buffer (PBS 2% FCS) starting from a high concentration of ˜66 nM for each sample. 0.1×10⁶ CCRF-EM cells were plated in a 96 well plate and incubated in 50 μl FACS buffer containing the indicated concentration of sample variants for 1 hour in ice. Cells were then washed with 150 μ1 FACS buffer and incubated in 50 μl FACS buffer containing the secondary antibody (anti-human-IgG-PE, Jackson ImmunoResearch) diluted 1:100, for 1 hr in ice. Cells were then washed with FACS buffer and fixed in 2% PFA for acquisition with LSR II, DB flow cytometer (BD Biosciences, San Jose, Calif.). Flow Cytometry analysis was performed using FloJo software Version 9.6.4. To obtain titration curves and Kd, Mean Fluorescence Intensity (MFI) values were plotted against concentration (nM). Kd values were calculated using Prism 6, Non linear regression curve fit analysis, One Site Specific Binding with Hill Slope.
row,Binder,Kd [nM]
1,B5,0.18
2,B6,0.18
3,B7,0.21
4,B8,0.15
5,B9,0.14
6,B2,0.14
7,B10,0.21
8,B3,0.12
9,B4,0.14

# Molecular target: T3, human C1q (human, UniProt P02745 23-245; P02746 28-253; P02747 29-245)
# T3 construct: also called C1q (AbD Serotec 2221-5504)
# Assay: C1q binding ELISA, antibody coated and titrated from 133.4 nM, human C1q at 2 µg/mL, detected with anti-C1q HRP
# Procedure: (§4) Method: 96-well high protein binding ELISA plates (MaxSorp Nunc) were coated overnight at 4° C. with sample anti-CD47 antibody variants diluted in 0.05 M Sodium Bicarbonate Buffer (pH 9). Samples were diluted at a high concentration of 133.4 nM (20 μg/ml) and titrated 1:2 in an 11-point dilution curve. Plates were washed three times in PBS, 0.05% Tween 20 and blocked for 1 hour at room temperature with ELISA Diluent (0.1 M NAPO₄, 0.1 M NaCl, 0.1% gelatin, 0.05% Tween 20, 0.05% ProClin300). Plates were then washed again three times and incubated for two hours at room temperature with 2 μg/mL human C1q (AbD Serotec 2221-5504, 1 mg/mL stock) diluted in ELISA Diluent. Plates were then washed three times and incubated with sheep anti-human C1q HRP (AbD Serotec 2221-5004P) diluted 1:200 in ELISA Diluent for 1 hour at room temperature to detect bound Clq. Plates were then washed three times, then 100 μL of TMB solution was added. Reaction was quenched by adding 100 μl of 1M Phosphoric Acid and plate was read at 450 nm. Data are plotted using Prism6 as non-linear regression with log (inhibitor) vs. response—Variable slope (four parameters).
# T3 sequence (P02745 23-245 limits assumed, chain 1 of 3): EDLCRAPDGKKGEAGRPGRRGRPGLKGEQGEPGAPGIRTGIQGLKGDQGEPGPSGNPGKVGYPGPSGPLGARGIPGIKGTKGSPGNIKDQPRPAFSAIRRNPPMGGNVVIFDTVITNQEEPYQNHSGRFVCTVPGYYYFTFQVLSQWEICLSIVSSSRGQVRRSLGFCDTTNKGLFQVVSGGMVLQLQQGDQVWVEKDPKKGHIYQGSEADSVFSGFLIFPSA
# T3 sequence (P02746 28-253 limits assumed, chain 2 of 3): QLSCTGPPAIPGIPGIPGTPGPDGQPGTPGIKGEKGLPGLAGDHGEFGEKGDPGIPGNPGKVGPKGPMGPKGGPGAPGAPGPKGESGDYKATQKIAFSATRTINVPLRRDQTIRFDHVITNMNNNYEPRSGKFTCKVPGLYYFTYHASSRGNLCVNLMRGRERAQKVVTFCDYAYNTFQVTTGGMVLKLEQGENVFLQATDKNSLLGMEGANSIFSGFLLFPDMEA
# T3 sequence (P02747 29-245 limits assumed, chain 3 of 3): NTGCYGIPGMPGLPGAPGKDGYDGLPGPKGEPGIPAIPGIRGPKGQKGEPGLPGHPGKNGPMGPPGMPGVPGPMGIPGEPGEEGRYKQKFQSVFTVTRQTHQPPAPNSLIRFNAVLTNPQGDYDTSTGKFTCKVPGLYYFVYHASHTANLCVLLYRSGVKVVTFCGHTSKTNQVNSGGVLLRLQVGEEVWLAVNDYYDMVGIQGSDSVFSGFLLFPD
row,Binder,EC50 [nM]
1,B5,3.6

# Molecular target: T3, human C1q
# Assay: C1q binding ELISA, antibody coated and titrated, bound human C1q detected with anti-C1q HRP; NA = do not show activity
# Procedure: as §4
row,Binder,binding result
1,B6,no binding
2,B7,no binding
3,B8,no binding
4,B9,no binding
5,B11,no binding
6,B2,no binding
7,B10,no binding
8,B3,no binding
9,B4,no binding
10,B12,no binding

# Molecular target: T1, human CD47 antigen
# Assay: SPR (Biacore): antibody captured on anti-human Fc CM5 chip, human CD47 as analyte at 3.125-50 nM, 1:1 Binding model; the text says this fit is not reliable
# Procedure: as §2, §1, §3
Binder,Kd [nM],koff [s⁻¹],kon [M⁻¹ s⁻¹]
B8,4.21,0.00398,946000
B10,4.91,0.00404,824000
